Test results published in publication PMC4728560 (Scientific Reports, 2016).
Entries after “also recorded” stand apart in the source; their conditions may differ.

Assays:
[1] = system: Bcl-xL inhibition of cBid/Bax; experiment: In vitro reconstitution liposome permeabilization, cBid/Bax with Bcl-xL; format: biochemical; conditions: ANTS/DPX liposomes, 100 nM Bax, 20 nM cBid, pre-incubation pH 9, 45 min, 37 °C, 5 h, pH 7
Description: (§1) This purified assay system measures direct interactions in which full-length untagged Bcl-xL inhibits permeabilization by binding full-length caspase 8 cleaved Bid (cBid) and/or full-length untagged Bax, thereby preventing Bax oligomerization in membranes. […] In these assays liposome permeabilization by activated Bax releases the entrapped fluorophore/quencher pair 8-aminonaphthalene-1,3,6-trisulfonic acid (ANTS)/p-xylene-bispyridinium (DPX), resulting in a measurable increase of fluorescence.
(§2) (A–E) in vitro reconstitution assay on liposome permeabilization. […] The treated Bcl-xL was then added to reactions containing ANTS-DPX liposomes, 100 nM Bax and 20 nM of either cBid (A,B) or cBidmt1(C,D) at pH 7. Liposome permeabilization was quantified by fluorescence after 5h incubation at 37 °C where 100% release was defined as the fluorescence change due to lipid solubilization with 1% Triton X-100. […] Error bars, std. dev. n = 3. […] Cyto c extra-mito: in the supernatant, analysed by Western blot. […]
(§3) Figure 10 A,B) or cBid mt1 (Supplementary Figure 10 C,D) at pH 7 to quantify the activity of Bcl-xL inhibition of liposome permeablization. […]
(§4) then added to reactions containing ANTS-DPX liposomes, 100nM Bax and 20nM of either c Bid (A, C) or cBid mt1(B, D) at pH 7 and liposome permeabilization was quantified by fluorescence […]

Bcl-xL [2] = experiment: In cellulo BRET between Luciferase-fused TCTP and YFP-fused Bcl-xL; format: cell-based; conditions: MCF-7 cells; donor Luciferase-fused TCTP, acceptor YFP-fused Bcl-xL
Description: See Supplementary Information for full details.
Twenty-four hours later, cells
Protein expression and purification

[3] = system: Bax mediated cytochrome c release, Bcl-xL; experiment: Cytochrome c release from purified mitochondria by tBid and Bax in the presence of Bcl-xL; format: biochemical; conditions: mouse liver mitochondria; 5 nM tBid, 50 nM Bax, 300 nM Bcl-xL; 15 min, 30 °C; Western blot
Protocol: as §2, with “3. To compare between the TCTP treated groups and the Control group statistically, two-way ANOVA test was performed for (A–D) and one-way ANOVA test was performed for (E). […] Colored asterisks above each data point indicate the statistical significance (*p < 0.05; **p < 0.01, no asterisks if p ≥ 0.05). A complete statistical analysis is provided in Supplementary Table 2–4.” for “3.”
to highlight the pre-incubation), pH 9, 30 C° before being added to the mitochondria at their final concentrations. […] Cytochrome c was detected in the mitochondrial fraction (Cyto c intra-mito) or in the supernatant (Cyto c extra-mito) by Western blot analysis. […]
Cytochrome c release assay. […] Mitochondrial pellets and the corresponding supernatant fractions were subjected to SDS-polyacrylamide gel electrophoresis and analyzed by Western blotting for cytochrome c.

Bcl-xL [4] = target: T1, Bcl-xL (Homo sapiens, UniProt Q07817, DEL27-82); experiment: Heterocomplex formation with Bcl-xL (native MS, SEC-MALS, gel filtration); format: binding; conditions: native MS: Bcl-xL(Δ27-81ΔCT), equimolar 100 μM, 30 °C, checked at 5 μM (for TCTP-R21A)
T1 construct: one containing the fragment 1-26, and the other the fragment 81-209; 6His (N, cleaved yes); made in house; host or cells: Escherichia coli BL21 (DE3) pRARE2
Protocol: When not specified, proteins tested for binding experiments were mixed at 100 μM, dialyzed against 10 mM CHES pH 9, 50 mM NaCl, 1 mM DTT or TCEP, depending on the analysis, and heated overnight at 30 °C.
For binding experiments, 100 to 200PL of protein mixture were loaded on a size exclusion chromatography (S200, GE Healthcare) column, while elution profiles were measured by UV absorption at 280 nm.
SEC-MALS experiments were performed on a multi-angle light scattering detector (miniDAWN TREOS, Wyatt Technologies) coupled in-line with SEC and an interferometric refractometer (Optilab T-rEX, Wyatt Technologies). See Supplementary Information for full details.
Prior to any mass spectrometry experiment, protein buffer was exchanged twice against a 50 mM ammonium acetate (NH4Ac) solution at pH 9.0 using microcentrifuge gel filtration columns (Zeba 0.5 ml, Thermo Scientific, Rockford, IL). Protein concentration was determined spectrophotometrically. […]
Supplementary Table 1. Measured molecular weights in denaturing conditions Sample Theoretical molecular Measured molecular Associated mass (Da) mass (Da) species […]
Gel filtration. For binding experiments, 100 to 200PL of protein mixture were loaded on a size exclusion chromatography (S200, GE Healthcare) column, while elution profiles were measured by UV absorption at 280nm. […]

[5] = system: Bcl-xL inhibition of cBidmt1/Bax; experiment: In vitro reconstitution liposome permeabilization, cBidmt1/Bax with Bcl-xL; format: biochemical; conditions: ANTS/DPX liposomes, 100 nM Bax, 20 nM cBidmt1, pre-incubation pH 9, 45 min, 37 °C, 5 h, pH 7
Description: as §1, §2, §3, §4

T1 sequence (Q07817 with tags, fused parts or gaps DEL27-82): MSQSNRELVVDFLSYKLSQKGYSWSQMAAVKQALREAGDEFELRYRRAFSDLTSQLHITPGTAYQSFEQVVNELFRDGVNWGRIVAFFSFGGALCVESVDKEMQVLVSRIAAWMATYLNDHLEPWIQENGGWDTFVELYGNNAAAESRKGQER

BRET signals with Bcl-xL (Bcl-xL [2]): lack of binding
B1: TCTP R21A: full-length TCTP protein bearing the mutation R21A (protein)
chain: MIIYRDLISHDEMFSDIYKIAEIADGLCLEVEGKMVSRTEGNIDDSLIGGNASAEGPEGEGTESTVITGVDIVMNHHLQETSFTKEAYKKYIKDYMKSIKGKLEEQRPERVKPFMTGAAEQIKHILANFKNYQFFIGENMNPDGMVALLDYREDGVTPYMIFFKDGLEMEKC
effect on Bcl-xL inhibition of cBid/Bax-mediated liposome permeabilization [1]: no effect on Bcl-xL activity
potentiation of Bcl-xL (cytochrome c release) [3]: do not potentiate Bcl-xL
complex formation with Bcl-xL (Bcl-xL [4]): no peak; also recorded: no complex formation
effect on Bcl-xL inhibition of cBidmt1/Bax-mediated liposome permeabilization [5]: no effect on Bcl-xL activity
